For one assay, the target named is T1, Ub-Lys-TAMRA (UniProt P0CG47 1-76, Ub is isopeptide-linked to a TAMRA-labeled Lys-Gly dipeptide (at the Ub C-terminus)).
T1 construct: ubiquitin (the cut product of the polyubiquitin precursor); source: generated previously (Geurink et al, 2012)
Description: fluorescence polarisation; TAMRA-labelled substrate fixed, unlabelled protein at a range of concentrations, mixed 1:1; 22 °C; 25 mM HEPES pH 7.4, 150 mM NaCl, 0.1 mg/mL BSA, 1 mM TCEP; 10 µL in 384-well plate; Kd by nonlinear regression of duplicate datasets (GraphPad Prism 10). The following applies: both partners purified. (In fluorescence polarisation assays a small probe gives low polarisation when free and higher when bound to something large.)

The target of assay [1] is T2, Ub-ADPr-TAMRA (fluorescent ester-linked Ub-ADPr conjugate) (human, UniProt P0CG47 1-76, C-terminus ester-linked to ADP-ribose (OP-ADPr, compound 8) that carries TAMRA (CuAAC with TAMRA-azide)).
T2 construct: ubiquitin, human (pET17b-Ub), wild type; observed mass of Ub 8564.4 Da; also called MARUbe probe; source: Ub purified as previously reported (Warren et al, 2023); coupled to OP-ADPr with DTX2, purified (Resource S), clicked to TAMRA-azide, purified (size exclusion)
Described as above. The following applies: both partners purified.

B1: RNF114 M-UBD construct (residues 137–228) (domain or fragment)
chain: not shown
notes: RNF114, human, residues 137-228 (RING domain and associated disordered regions removed); No tag cleavage described; also called tandem Di19-UIM module; source: E. coli Rosetta, purified (Cobalt resin, gel filtration)
For B1, the binding result in the assay with Ub-Lys-TAMRA was “binds”.

B2: RNF114 (wild type, full-length) (enzyme, human, UniProt Q9Y508 1-228, looked up)
chain: MAAQQRDCGGAAQLAGPAAEADPLGRFTCPVCLEVYEKPVQVPCGHVFCSACLQECLKPKKPVCGVCRSALAPGVRAVELERQIESTETSCHGCRKNFFLSKIRSHVATCSKYQNYIMEGVKATIKDASLQPRNVPNRYTFPCPYCPEKNFDQEGLVEHCKLFHSTDTKSVVCPICASMPWGDPNYRSANFREHIQRRHRFSYDTFVDYDVDEEDMMNQVLQRSIIDQ
notes: RNF114, human, RING-type E3 ubiquitin ligase; synthesised DNA cloned into pOPIN-B (N-terminal His-3C fusion); The methods describe no cleavage of the His-3C tag; also called WT RNF114; source: E. coli Rosetta, purified (Cobalt resin, gel filtration)
As a reminder, the Kd is a measure of binding affinity in units of concentration. Higher therefore signals weaker binding. Regarding B2, the values for the Kd (with Ub-Lys-TAMRA; in assay [1]) were approximately 20 µM and 12.8 µM, respectively.

B3: RNF114 R198E (enzyme, human, UniProt Q9Y508 1-228, looked up)
chain: MAAQQRDCGGAAQLAGPAAEADPLGRFTCPVCLEVYEKPVQVPCGHVFCSACLQECLKPKKPVCGVCRSALAPGVRAVELERQIESTETSCHGCRKNFFLSKIRSHVATCSKYQNYIMEGVKATIKDASLQPRNVPNRYTFPCPYCPEKNFDQEGLVEHCKLFHSTDTKSVVCPICASMPWGDPNYRSANFREHIQREHRFSYDTFVDYDVDEEDMMNQVLQRSIIDQ
notes: Made by site-directed mutagenesis of pOPINB-RNF114 WT; no tag cleavage described; source: E. coli Rosetta, purified (Cobalt resin, gel filtration)
B3: the binding result (in the assay with Ub-Lys-TAMRA; in assay [1]) was “binds” each time.

B4: RNF114 F206E (enzyme, human, UniProt Q9Y508 1-228, looked up)
chain: MAAQQRDCGGAAQLAGPAAEADPLGRFTCPVCLEVYEKPVQVPCGHVFCSACLQECLKPKKPVCGVCRSALAPGVRAVELERQIESTETSCHGCRKNFFLSKIRSHVATCSKYQNYIMEGVKATIKDASLQPRNVPNRYTFPCPYCPEKNFDQEGLVEHCKLFHSTDTKSVVCPICASMPWGDPNYRSANFREHIQRRHRFSYDTEVDYDVDEEDMMNQVLQRSIIDQ
notes: RNF114, human, with a mutation in the linker between Di19 and UIM (modelled contact with the Ub I36 patch); Made by site-directed mutagenesis of pOPINB-RNF114 WT; no tag cleavage described; source: E. coli Rosetta, purified (Cobalt resin, gel filtration)
Consider B4, for which the binding result (with Ub-Lys-TAMRA; in assay [1]) was “binds” in each case.

B5: RNF114 ΔUIM^ext (domain or fragment, human, UniProt Q9Y508 1-200, looked up)
chain: MAAQQRDCGGAAQLAGPAAEADPLGRFTCPVCLEVYEKPVQVPCGHVFCSACLQECLKPKKPVCGVCRSALAPGVRAVELERQIESTETSCHGCRKNFFLSKIRSHVATCSKYQNYIMEGVKATIKDASLQPRNVPNRYTFPCPYCPEKNFDQEGLVEHCKLFHSTDTKSVVCPICASMPWGDPNYRSANFREHIQRRHR
notes: RNF114, human, truncated version that ends immediately after the Di19 domain at residue 200; No tag cleavage described; source: E. coli Rosetta, purified (Cobalt resin, gel filtration)
Regarding B5, the binding result in assay [1] was “binds”.

B6: AF1521 macrodomain (natural protein, UniProt O28751 1-192, looked up)
chain: MEVLFEAKVGDITLKLAQGDITQYPAKAIVNAANKRLEHGGGVAYAIAKACAGDAGLYTEISKKAMREQFGRDYIDHGEVVVTPAMNLEERGIKYVFHTVGPICSGMWSEELKEKLYKAFLGPLEKAEEMGVESIAFPAVSAGIYGCDLEKVVETFLEAVKNFKGSAVKEVALVIYDRKSAEVALKVFERSL
notes: plasmid GST-AF1521 (gift from M. Nielsen); also called GST-AF1521; source: purified as previously reported (Kamata et al, 2019)
For the molecule B6, the binding result (with Ub-Lys-TAMRA; in assay [1]) was “binds” in each case.

B7: RNF138 (enzyme, human, UniProt Q8WVD3 1-245, looked up)
chain: MAEDLSAATSYTEDDFYCPVCQEVLKTPVRTTACQHVFCRKCFLTAMRESGAHCPLCRGNVTRRERACPERALDLENIMRKFSGSCRCCAKQIKFYRMRHHYKSCKKYQDEYGVSSIIPNFQISQDSVGNSNRSETSTSDNTETYQENTSSSGHPTFKCPLCQESNFTRQRLLDHCNSNHLFQIVPVTCPICVSLPWGDPSQITRNFVSHLNQRHQFDYGEFVNLQLDEETQYQTAVEESFQVNI
notes: RNF138, human, RING-type E3 ubiquitin ligase; synthesised DNA cloned into pOPIN-S3C (N-terminal His-SUMO-3C fusion); No tag cleavage described; source: E. coli Rosetta, purified (Cobalt resin, gel filtration; buffers at pH 8.0)
Regarding B7, the binding result in assay [1] was “binds”.

B8: RNF166 (enzyme, human, UniProt Q96A37 1-237, looked up)
chain: MAMFRSLVASAQQRQPPAGPAGGDSGLEAQYTCPICLEVYHRPVAIGSCGHTFCGECLQPCLQVPSPLCPLCRLPFDPKKVDKATHVEKQLSSYKAPCRGCNKKVTLAKMRVHISSCLKVQEQMANCPKFVPVVPTSQPIPSNIPNRSTFACPYCGARNLDQQELVKHCVESHRSDPNRVVCPICSAMPWGDPSYKSANFLQHLLHRHKFSYDTFVDYSIDEEAAFQAALALSLSEN
notes: RNF166, human, RING-type E3 ubiquitin ligase; synthesised DNA cloned into pOPIN-B (N-terminal His-3C fusion); No tag cleavage described; source: E. coli Rosetta, purified (Cobalt resin, gel filtration)
Take B8: the binding result in assay [1] is given as “binds”.

For the origin of these results see PMC12583694, “RNF114 and RNF166 exemplify reader-writer E3 ligases that extend K11 polyubiquitin onto sites of MARUbylation” (The EMBO Journal, 2025).
